Reference: US20250011428A1 (Novartis, published 2025)
Where a chain is given by its changes, count along the chain named.

B1: CD3_2 (antibody, human IgG1, lambda)
heavy: EVQLVESGGGLVQPGGSLKLSCAASGFTFNTYAMNWVRQASGKGLEWVGRIRSKYNNYATYYADSVKDRFTISRDDSKSTLYLQMNSLKTEDTAVYYCVRHGNFGNSYVSWFAYWGQGTLVTVSSASTKGPSVFPLAPSSKSTSGGTAALGCLVKDYFPEPVTVSWNSGALTSGVHTFPAVLQSSGLYSLSSVVTVPSSSLGTQTYICNVNHKPSNTKVDKRVEPKSCDKTHTCPPCPAPELCCHPSVFLFPPKPKDTLMISRTPEVTCVVVGLRHEDPEVKFNWYVDGVEVHNAKTKPREEQYCGCYRVVSVLTVLHQDWLNGKEYKCKVSNKALPAPIEKTISKAKGQPREPQVYTLPPSRDELTKNQVSLTCLVKGFYPSDIAVEWESNGQPENNYKTTPPVLDSDGSFFLYSKLTVDKSRWQQGNVFSCSVMHEALHNHYTQKSLSLSPGK
light: QAVVTQEPSLTVSPGGTVTLTCRSSTGAVTTSNYANWVQQKPGQAPRGLIGGTNKRAPWTPARFSGSLLGDKAALTLSGAQPEDEAEYFCALWYSNLWVFGGGTKLTVLGQPKAAPSVTLFPPSSEELQANKATLVCLISDFYPGAVTVAWKADSSPVKAGVETTTPSKQSNNKYAASSYLSLTPEQWKSHRSYSCQVTHEGSTVEKTVAPTECS
notes: hIgG1
B2: CD3_1_YTE (antibody, human IgG1, lambda)
heavy: B1 heavy with S247R, M260Y, S262T, T264E, V272T, H276D, R309S
light: B1 light
notes: hIgG1
B3: CD3_3_YTE (antibody, human IgG1, lambda)
heavy: B1 heavy with M260Y, S262T, T264E, V272T, H276D
light: B1 light
notes: hIgG1
B4: CD3_1 (antibody, human IgG1, lambda)
heavy: B1 heavy with S247R, V272T, H276D, R309S
light: B1 light
notes: hIgG1
B5: CD3_4_YTE (antibody, human IgG1, lambda)
heavy: B1 heavy with M260Y, S262T, T264E, G273D, L274V, R275S
light: B1 light
notes: hIgG1
B6: CD3_7_YTE (antibody, human IgG1, lambda)
heavy: B1 heavy with C243L, C244G, H245G, M260Y, S262T, T264E, G273D, L274V, R275S, G306S
light: B1 light
notes: hIgG1
B7: CD3_DANAPA (antibody, human IgG1, lambda, N297A)
heavy: B1 heavy with C243L, C244G, H245G, G273A, L274V, R275S, C305A, G306S, C307T, P337A
light: B1 light
notes: hIgG1; silencing benchmark
B8: CD3_6_YTE (antibody, human IgG1, lambda)
heavy: B1 heavy with H245G, M260Y, S262T, T264E, G273D, L274V, R275S, C305N, G306S, C307T
light: B1 light
notes: hIgG1
B9: CD3_10 (antibody, human IgG1, lambda)
heavy: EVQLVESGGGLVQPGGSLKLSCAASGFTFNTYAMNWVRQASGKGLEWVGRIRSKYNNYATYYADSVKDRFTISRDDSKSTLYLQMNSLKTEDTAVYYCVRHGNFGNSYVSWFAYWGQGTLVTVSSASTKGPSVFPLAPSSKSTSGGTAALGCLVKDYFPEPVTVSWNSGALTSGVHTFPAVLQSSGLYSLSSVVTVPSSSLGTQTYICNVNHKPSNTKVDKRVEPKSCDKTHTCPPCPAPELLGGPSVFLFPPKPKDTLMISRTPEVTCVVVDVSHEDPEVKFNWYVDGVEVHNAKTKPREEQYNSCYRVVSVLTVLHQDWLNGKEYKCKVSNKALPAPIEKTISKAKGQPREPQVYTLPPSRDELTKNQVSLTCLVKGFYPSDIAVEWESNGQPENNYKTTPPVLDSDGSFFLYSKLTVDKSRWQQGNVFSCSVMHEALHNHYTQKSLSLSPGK
light: B1 light
notes: hIgG1
B10: CD3_5_YTE (antibody, human IgG1, lambda)
heavy: B1 heavy with H245G, M260Y, S262T, T264E, G273D, L274V, R275S, G306S
light: B1 light
notes: hIgG1
B11: CD3_3 (antibody, human IgG1, lambda)
heavy: B1 heavy with V272T, H276D
light: B1 light
notes: hIgG1
B12: CD3_9 (antibody, human IgG1, lambda)
heavy: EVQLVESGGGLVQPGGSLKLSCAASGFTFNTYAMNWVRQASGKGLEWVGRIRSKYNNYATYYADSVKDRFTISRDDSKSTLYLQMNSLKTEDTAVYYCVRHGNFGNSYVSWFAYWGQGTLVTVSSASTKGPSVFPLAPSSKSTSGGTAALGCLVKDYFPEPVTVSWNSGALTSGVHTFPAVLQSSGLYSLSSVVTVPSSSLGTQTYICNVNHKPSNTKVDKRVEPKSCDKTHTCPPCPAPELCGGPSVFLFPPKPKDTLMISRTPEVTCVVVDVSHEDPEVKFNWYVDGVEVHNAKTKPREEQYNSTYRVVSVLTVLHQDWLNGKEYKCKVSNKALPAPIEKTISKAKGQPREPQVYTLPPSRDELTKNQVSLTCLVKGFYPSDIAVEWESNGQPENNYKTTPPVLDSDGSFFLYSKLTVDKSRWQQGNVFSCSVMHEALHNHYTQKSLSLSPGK
light: B1 light
notes: hIgG1
B13: CD3_4 (antibody, human IgG1, lambda)
heavy: B1 heavy with G273D, L274V, R275S
light: B1 light
notes: hIgG1
B14: CD3_8 (antibody, human IgG1, lambda)
heavy: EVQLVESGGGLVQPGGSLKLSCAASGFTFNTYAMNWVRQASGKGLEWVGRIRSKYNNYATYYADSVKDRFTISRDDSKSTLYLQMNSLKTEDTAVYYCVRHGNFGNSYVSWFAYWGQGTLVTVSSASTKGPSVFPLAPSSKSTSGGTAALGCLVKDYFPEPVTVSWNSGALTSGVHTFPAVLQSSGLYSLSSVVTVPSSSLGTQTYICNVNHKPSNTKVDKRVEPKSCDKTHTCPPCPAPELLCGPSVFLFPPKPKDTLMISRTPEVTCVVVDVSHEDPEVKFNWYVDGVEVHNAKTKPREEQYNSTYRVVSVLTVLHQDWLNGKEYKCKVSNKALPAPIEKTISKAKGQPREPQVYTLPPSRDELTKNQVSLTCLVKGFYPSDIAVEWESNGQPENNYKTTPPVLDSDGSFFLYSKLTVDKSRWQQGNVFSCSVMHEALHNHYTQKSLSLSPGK
light: B1 light
notes: hIgG1
B15: CD3_9_YTE (antibody, human IgG1, lambda)
heavy: EVQLVESGGGLVQPGGSLKLSCAASGFTFNTYAMNWVRQASGKGLEWVGRIRSKYNNYATYYADSVKDRFTISRDDSKSTLYLQMNSLKTEDTAVYYCVRHGNFGNSYVSWFAYWGQGTLVTVSSASTKGPSVFPLAPSSKSTSGGTAALGCLVKDYFPEPVTVSWNSGALTSGVHTFPAVLQSSGLYSLSSVVTVPSSSLGTQTYICNVNHKPSNTKVDKRVEPKSCDKTHTCPPCPAPELCGGPSVFLFPPKPKDTLYITREPEVTCVVVDVSHEDPEVKFNWYVDGVEVHNAKTKPREEQYNSTYRVVSVLTVLHQDWLNGKEYKCKVSNKALPAPIEKTISKAKGQPREPQVYTLPPSRDELTKNQVSLTCLVKGFYPSDIAVEWESNGQPENNYKTTPPVLDSDGSFFLYSKLTVDKSRWQQGNVFSCSVMHEALHNHYTQKSLSLSPGK
light: B1 light
notes: hIgG1
B16: CD3_WT_YTE (antibody, human IgG1, lambda)
heavy: B15 heavy with C243L
light: B1 light
notes: hIgG1
B17: CD3_11_YTE (antibody, human IgG1, lambda)
heavy: B15 heavy with C243L, N305C
light: B1 light
notes: hIgG1

Experiments:
hCD3epsilon-FC antigen [1] = molecular target: T1, hCD3epsilon-FC antigen (human, UniProt P07766 23-126); assay: SPR Biacore T200; hCD3epsilon-FC amine-coupled on CM5, IgG as analyte; set-up: unit not given here
T1 construct: immobilized by amine coupling on CM5; also called human CD3epsilon
T1 sequence (P07766 23-126 limits assumed): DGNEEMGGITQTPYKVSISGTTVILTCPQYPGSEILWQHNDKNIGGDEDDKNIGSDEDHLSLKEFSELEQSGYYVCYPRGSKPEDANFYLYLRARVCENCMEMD

[2] = molecular target: T2, recombinant human hFcγR1a (human, UniProt P12314 16-288, limits assumed); assay: SPR Biacore T200; IgG amine-coupled on CM5, receptor as analyte; response normalized to parental (=100);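 note: measured at room temperature in pH 7.6 phosphate buffer with Tween 20, double-referenced sensorgrams, maximum response taken as binding capacity at saturation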
T2 construct: recombinant, analyte in SPR; also called FcγRI
T2 sequence (P12314 16-288 limits assumed): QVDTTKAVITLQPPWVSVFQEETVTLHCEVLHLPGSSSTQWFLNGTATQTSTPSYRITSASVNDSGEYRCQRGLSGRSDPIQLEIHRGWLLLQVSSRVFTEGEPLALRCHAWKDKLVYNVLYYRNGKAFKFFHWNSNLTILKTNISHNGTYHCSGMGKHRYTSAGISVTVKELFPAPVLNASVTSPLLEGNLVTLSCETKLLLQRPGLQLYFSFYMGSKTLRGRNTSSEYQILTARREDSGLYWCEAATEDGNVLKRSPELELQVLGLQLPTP
Method: (§1) Kinetics and binding capacity were measured on a BIAcore® T200 instrument (GE Healthcare, Glattbrugg, Switzerland) at room temperature, with proteins diluted in running buffer 10 mM NaP, 150 mM NaCl, 0.05% Tween 20, pH7.6. A CM5 sensor chip (Sensor Chip SA, GE Healthcare Life Sciences) was used to immobilized engineered immunoglobulins by amine coupling. Then, recombinant human hFcγR1a, or recombinant human hFcγR3a (F158V), or recombinant human hFcRn, or hC1q was used as the analyte.
(§2) Binding data were acquired by subsequent injection of analyte dilution series on the reference and measuring flow cells. Zero concentration samples (running buffer only) were included to allow double referencing during data evaluation. For data evaluation, doubled referenced sensorgrams were analyzed and the maximum response reached during the experiment was monitored. Maximum response describes the binding capacity of the surface in terms of the response at saturation. Finally, measured maximum responses were normalized to the one measured using parental immunoglobulin (not engineered).

[3] = molecular target: T3, recombinant human hFcγR3a (F158V) (human, UniProt P08637 17-208); assay: as above
T3 construct: also called FcγRIII
T3 sequence (P08637 17-208 F176V): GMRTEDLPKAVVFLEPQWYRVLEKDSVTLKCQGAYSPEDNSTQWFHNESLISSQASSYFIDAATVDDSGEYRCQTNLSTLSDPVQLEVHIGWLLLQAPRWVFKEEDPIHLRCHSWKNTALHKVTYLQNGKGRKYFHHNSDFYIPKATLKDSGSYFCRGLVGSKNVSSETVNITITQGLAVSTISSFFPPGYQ
Method: as §1, §2

hCD3epsilon-FC antigen [4] = molecular target: T1, hCD3epsilon-FC antigen; assay: SPR Biacore T200; hCD3epsilon-FC amine-coupled on CM5, IgG as analyte; 1:1 model, apparent KD (bivalent analyte)
Method: A CM5 sensor chip (Sensor Chip SA, GE Healthcare Life Sciences) was used to immobilize hCD3epsilon-FC antigen by amine coupling. Then, engineered anti-CD3 hIgG1 were used as the analyte.
Binding data were acquired by subsequent injection of analyte dilution series on the reference and measuring flow cells. Zero concentration samples (running buffer only) were included to allow double referencing during data evaluation. For data evaluation, doubled referenced sensorgrams were analyzed by applying a 1:1 binding model analysis to generate the equilibrium dissociation constant (KD). Binding constant described Table 7 are considered as apparent KD since immunoglobulins used as analyte are bivalent for the immobilized antigen. In addition, maximum response reached during the experiment was monitored. Maximum response describes the binding capacity of the surface in terms of the response at saturation. Finally, measured maximum responses were normalized to the one measured using parental immunoglobulin (not engineered).

recombinant human hFcRn = molecular target: T4, recombinant human hFcRn (human, UniProt P55899 24-297; P61769 21-119); assay: SPR Biacore T200; IgG amine-coupled on CM5, hFcRn as analyte; response normalized to parental (=100)
T4 construct: FcRn is normally a heterodimer with it
T4 sequence (P55899 24-297 limits assumed, chain 1 of 2): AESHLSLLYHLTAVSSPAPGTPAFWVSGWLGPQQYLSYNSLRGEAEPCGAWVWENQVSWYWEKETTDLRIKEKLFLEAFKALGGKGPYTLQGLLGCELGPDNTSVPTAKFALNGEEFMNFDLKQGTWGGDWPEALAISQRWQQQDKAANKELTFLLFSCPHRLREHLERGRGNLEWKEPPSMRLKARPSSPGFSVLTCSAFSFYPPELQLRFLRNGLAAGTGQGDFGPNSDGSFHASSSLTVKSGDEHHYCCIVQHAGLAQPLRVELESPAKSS
T4 sequence (P61769 21-119 limits assumed, chain 2 of 2): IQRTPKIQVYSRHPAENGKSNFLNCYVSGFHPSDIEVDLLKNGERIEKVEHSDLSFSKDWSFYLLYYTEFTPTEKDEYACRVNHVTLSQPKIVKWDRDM
Method: as §1, §2

hC1q = hC1q (human, UniProt P02745 23-245; P02746 28-253; P02747 29-245); assay: SPR Biacore T200; IgG amine-coupled on CM5, hC1q as analyte; response normalized to parental (=100)
Sequence of hC1q (P02745 23-245 limits assumed, chain 1 of 3): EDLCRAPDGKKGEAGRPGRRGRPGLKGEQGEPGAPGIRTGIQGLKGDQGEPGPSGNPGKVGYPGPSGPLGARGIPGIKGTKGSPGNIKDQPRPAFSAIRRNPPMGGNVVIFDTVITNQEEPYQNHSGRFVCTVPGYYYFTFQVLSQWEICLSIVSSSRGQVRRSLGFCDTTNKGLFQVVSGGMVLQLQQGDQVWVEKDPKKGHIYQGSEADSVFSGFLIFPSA
Sequence of hC1q (P02746 28-253 limits assumed, chain 2 of 3): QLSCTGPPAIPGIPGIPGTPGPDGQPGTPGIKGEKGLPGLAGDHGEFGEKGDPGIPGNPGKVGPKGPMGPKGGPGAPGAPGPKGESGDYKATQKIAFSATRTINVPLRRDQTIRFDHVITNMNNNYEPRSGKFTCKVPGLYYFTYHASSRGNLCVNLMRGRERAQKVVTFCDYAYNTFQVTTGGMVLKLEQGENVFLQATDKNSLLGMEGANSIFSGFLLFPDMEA
Sequence of hC1q (P02747 29-245 limits assumed, chain 3 of 3): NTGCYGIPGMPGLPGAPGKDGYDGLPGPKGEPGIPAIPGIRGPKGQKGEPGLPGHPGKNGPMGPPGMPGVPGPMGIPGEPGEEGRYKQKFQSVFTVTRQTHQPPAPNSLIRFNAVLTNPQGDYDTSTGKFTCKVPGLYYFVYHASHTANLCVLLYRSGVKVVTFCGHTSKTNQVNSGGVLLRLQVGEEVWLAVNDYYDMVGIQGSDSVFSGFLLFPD
Method: as §1, §2

Binder | Maximum response at 125 nM hIgG1 (hCD3epsilon-FC antigen [1]) | Maximum response at 100 nM hFcγR1a (RU) [2] | Maximum response at 300 nM hFcγR3a F158V (RU) [3] | Kd (hCD3epsilon-FC antigen [4]) | Maximum response at 1840 nM hFcRn (RU) (recombinant human hFcRn) | Maximum response at 20 nM hC1q (RU) (hC1q)
B1 | 386 | 5 RU | 20 RU | 2.24 nM | – | –
B2 | 371 | 6 RU | 20 RU | 2.09 nM | 290 RU | –
B3 | 371 | 7 RU | 10 RU | 2.1 nM | – | –
B4 | 371 | 2 RU | 10 RU | 2.06 nM | – | 5 RU
B5 | 427 | 4 RU | 10 RU | 2.74 nM | – | –
B6 | 367 | 31 RU | 19 RU | 2.31 nM | 284 RU | –
B7 | 392 | 6 RU | 10 RU | 3.27 nM | – | 1 RU
B8 | 340 | 10 RU | 15 RU | 2.42 nM | 720 RU | –
B9 | – | 18 RU | – | – | 126 RU | 3 RU
B10 | 322 | 7 RU | 17 RU | 3.74 nM | 340 RU | –
B11 | 375 | 3 RU | 2 RU | 2.04 nM | – | –
B12 | – | 2 RU | – | – | 122 RU | 10 RU
B13 | 470 | 4 RU | 10 RU | 3.38 nM | – | –
B14 | – | 2 RU | – | – | 126 RU | 1 RU
B15 | – | 2 RU | – | – | 696 RU | 4 RU
B16 | 342 | 97 RU | 71 RU | 2.34 nM | 586 RU | –
B17 | – | 12 RU | – | – | 230 RU | 1 RU
